Biological target: V5-HAX-1 (HCLS1-associated protein X-1) (human) (UniProt O00165)
Test: co-IP

UniProt O00165, sequence (O00165 whole entry): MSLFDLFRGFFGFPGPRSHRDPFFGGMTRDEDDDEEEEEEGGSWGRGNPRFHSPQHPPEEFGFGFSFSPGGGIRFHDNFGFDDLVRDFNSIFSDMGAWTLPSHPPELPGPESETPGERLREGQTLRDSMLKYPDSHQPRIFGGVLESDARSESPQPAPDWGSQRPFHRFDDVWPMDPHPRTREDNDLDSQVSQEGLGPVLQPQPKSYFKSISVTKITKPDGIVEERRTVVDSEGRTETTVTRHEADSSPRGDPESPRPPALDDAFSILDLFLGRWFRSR

Question: For “VN/1203 PB1-F2 coexpressed as competitor (Figure 8c) (natural protein)”, which percent decrease of HAX-1 bound to PA in the presence of PB1-F2 is on record?
Answer: 80%

Source: publication PMC5952157
